The record followed here is the DeepSol protein solubility set.

The nature of this data set: soluble on expression in E. coli; label from the status in PepcDB or PDB records.
Regarding “APRTLYDKIWDDHVVHQSEDGTCLLYIDRHLVHEVTSPQAFEGLRMTGRKVRAPEKTIAVPDHNVPTTEGRDTKIDNEESRIQVEALDKNARDFGINYYPVSDIRQGIVHIVGPEQGWTLPGMTVVCGDSHTATHGAFGALAHGIGTSEVEHVLATQTLIQKKSKN”, the “soluble on expression in E. coli” value is recorded as “not soluble”.

As to “APTPAQMPSPTSFSDSIKQLAAETLPKYMQQLNSLDAEMLQKNHDQFATGSGPLRGSITQCQGLMQFCGGELQAEASAILNTPVCGIPFSQWGTIGGAASAYVASGVDLTQAANEIKGLAQQMQKLLSLMHHHHHH”, the “soluble on expression in E. coli” value is given as “soluble”. Take “APVGPLGQVKLTVWYHSDEQKLISIIHSCRALRQNGRDLPDPYVSVLLLPDKNRSTKRKTPQKKRTLNPEFNERFEWDLPLDGTLRRKLDVSVKSNSSFMSRERELLGKVQLDLAEIDLSQGAAQWYDLMDDRDKGGS”: the “soluble on expression in E. coli” value is “soluble”.

With “AQVPASGKLLVDPRYSTNDQEESILQDIITRFPNVVLMKQTAQLRAMMTIIRDKETPKEEFVFYADRLIRLLIEEALNELPFQKKEVTTPLDVSYHGVSFYSKICGVSIVRAGESMESGLRAVCRGVRIGKILIQRDETTAEPKLIYEKLPADIRERWVMLLDPMCATAGSVCKAIEVLLRLGVKEERIIFVNILAAPQGIERVFKEYPKVRMVTAAVDICLNSRYYIVPGIGDFGDRYFGTM”, the “soluble on expression in E. coli” value is “soluble”.

Consider “ARAEQFTTSLLSIISNNNLLAKATSESIMGAAMKAAVLNLPIEPSLGFAYVVPYNRNYKDGNRWITVNEAQFQIGYRGLIQLAQRSGQVRNIEHGIIYEEEFLGYDKIRGQLKLTGDYVDSGVVKGYFASLELISGFYKMIFWPKEKVYEHAKKYSKTFDKKTGDFKPGTPWATEFDPMAIKTLLKELLSKYAPLSVEMQDALEADNADSTIVIPKDVTPQETNSLDDLIGTQ”, for which the “soluble on expression in E. coli” value is “not soluble”.

Consider “ARFMAVSSELKDDTRTYTVAGQVFFASSDRFMSHFDFREAVERVVIDVTHAHFWDITSVSALDRVVIKFRREGTEVEIKGMNDATRTLVDRFGVHDKPEEVEKLMGGH”, for which the “soluble on expression in E. coli” value is listed as “not soluble”. Take “ARIRAPQEATVKEVHDAPAVRGSIIANMLQEHDNPFTLYPYDTNYLIYTQTSDLNKEAIASYDWAENARKDEVKFQLSLAFPLWRGILGPNSVLGASYTQKSWWQLSNSEESSPFRETNYEPQLFLGFATDYRFAGWTLRDVEMGYNHDSNGRSDPTSRSWNRLYTRLMAENGNWLVEVKPWYVVGNTDDNPDITKYMGYYQLKIGYHLGDAVLSAKGQYNWNTGYGGAELGLSYPITKHVRLYTQVYSGYGESLIDYNFNQTRVGVGVMLNDLF”: the “soluble on expression in E. coli” value is “soluble”. In the case of “ASASYYEQYHSLNEIYSWIEFITERHPDMLTKIHIGSSFEKYPLYVLKVSGKEQAAKNAIWIDCGIHAREWISPAFCLWFIGHITQFYGIIGQYTNLLRLVDFYVMPVVNVDGYDYSWKKNRMWRKNRSFYANNHCIGTDLNRNFASKHWCEEGASSSSCSETYCGLYPESEPEVKAVASFLRRNINQIKAYISMHSYSQHIVFPYSYTRSKSKDHEELSLVASEAVRAIEKTSKNTRYTHGHGSETLYLAPGGGDDWIYDLGIKYSFTIELRDTGTYGFLLPERYIKPTCREAFAAVSKIAWHVIRNV” it was “soluble”. In the case of “ATALAGSNGVCIAYYITDGRNPTFKLKDIPDKVDMVILFGLKYWSLQDTTKLPGGTGMMGSFKSYKDLDTQIRSLQSRGIKVLQNIDDDVSWQSSKPGGFASAAAYGDAIKSIVIDKWKLDGISLDIEHSGAKPNPIPTFPGYAATGYNGWYSGSMAATPAFLNVISELTKYFGTTAPNNKQLQIASGIDVYAWNKIMENFRNNFNYIQLQSYGANVSRTQLMMNYATGTNKIPASKMVFGAYAEGGTNQANDVEVAKWTPTQGAKGGMMIYTYNSNVSYANAVRDAVKN” it was “soluble”. As to “ATITIETCEDPGDWTAAIGDDTFTFWRGLKDAGLLDEVIQEFHQELVETMRGLQQRVQDPPLQLRDAVLLNNIVQNFGMLDLVKKVLASHKCQMDRSREQYARDLAAL”, the “soluble on expression in E. coli” value was “soluble”. In the case of “ATLKDITRRLKSIKNIQKITKSMKMVAAAKYARAERELKPARVYGVGSLALYEKADIKTPEDKKKHLIIGVSSDRGLCGAIHSSVAKQMKSEAANLAAAGKEVKIIGVGDKIRSILHRTHSDQFLVTFKEVGRRPPTFGDASVIALELLNSGYEFDEGSIIFNRFRSVISYKTEEKPIFSLDTISSAESMSIYDDIDADVLRNYQEYSLANIIYYSLKESTTSEQSARMTAMDNASKNASEMIDKLTLTFNRTRQAVITKELIEIISGAAAL” it was “soluble”; in that of “AVHITLDPDTANPWLILSEDRRQVRLGDTQQSIPGNEERFDSYPMVLGAQHFHSGKHYWEVDVTGKEAWDLGVCRDSVRRKGHFLLSSKSGFWTIWLWNKQKYEAGTYPQTPLHLQVPPCQVGIFLDYEAGMVSFYNITDHGSLIYSFSECAFTGPLRPFFSPGFNDGGKNTAPLTLCPLNIGSQG”, “not soluble”; in that of “AVKEMVYRTRLANGLTVALLPKKEFKEVYGSVTVQFGSVDTFVTEVDGDVKQYPGGIAHFLEHKLFEREDSSDLMSAFTSLGADSNAFTSFTKTNYLFSATDYFLENLDLLDELVTSAHFTEASILTEQDIIQQEREMYQDDPDSCLFFSTLANLYPGTPLATDIVGSEESISQINLTNLQENFTKFYKPVNMSLFLVGNFDVERVQDYFESKELKDSDFQEVAR”, “not soluble”. The value for “AVKILEIEDLFSSLKHIQHTLVDSQSQEDISLLLQLVQNKDFQNAFKIHNAITVHMNKAS” was “soluble”; that for “AVKLQESGPGILKPSQTLSLTCSFSGFSLTTYGMGVGWIRQSSGKGLEWLAHIWWDDDKYYNPSLKSRLTISKDTSRNQVFLKITSVATADTATYYCARRAPFYGNHAMDYWGQGTTVTVSSAKTTPPSVYPLAPGSAAQTNSMVTLGCLVKGYFPEPVTVTWNSGSLSSGVHTFPAVLQSDLYTLSSSVTVPSSPRPSETVTCNVAHPASSTKVDKKI” was “soluble”; that for “AVLDLDVRTCLPCGPGGKGRCFGPSICCGDELGCFVGTAEALRCQEENYLPSPCQSGQKPCGSGGRCAAAGICCSPDGCEEDPACDPEAAFS” was “soluble”.

Consider “AVPFVEDWDLVQTLGEGAYGEVQLAVNRVTEEAVAVKIVDMKRAVDCPENIKKEICINKMLNHENVVKFYGHRREGNIQYLFLEYCSGGELFDRIEPDIGMPEPDAQRFFHQLMAGVVYLHGIGITHRDIKPENLLLDERDNLKISDFGLATVFRYNNRERLLNKMCGTLPYVAPELLKRREFHAEPVDVWSCGIVLTAMLAGELPWDQPSDSCQEYSDWKEKKTYLNPWKKIDSAPLALLHKILVENPSARITIPDIKKDRWYNKPLKKG”, for which the “soluble on expression in E. coli” value is on record as “soluble”. The value for “AVSDQRLSEATLRELEDERQRAGLPEKPEIPEGWTIDRKPGVTHFTMRKSHGDEEIILQLTGEDRSNEEITRTLDVLVVNGGKALVFGMSVEDGEFVINNVCFRHDGKLALDTSAEAQFQKSQLYMGPDLADLEDHLVDSFTSYLSARGVNDTLANFIDQFSLWSEQADYEEWLSSINKFVS” was “soluble”; that for “AVVITDRQNRIIKVNNEFTRLSGYTFEDVKGKQPSIFASGLHKVEFYMQMWKALQDNGVWEGEVINKRKDGESITEILRIQSIRDEDNVIQFYVASFVDIS” was “not soluble”. Take “AYVITEPCIGTKDASCVEVCPVDCIHEGEDQYYIDPDVCIDCGACEAVCPVSAIYHEDFVPEEWKSYIQKNRDFFKK”: the “soluble on expression in E. coli” value was “soluble”. The value for “CFSCLNQKSNLYCLKPTICSDQDNYCVTVSASAGIGNLVTFGHSLSKTCSPACPIPEGVNVGVASMGISCCQSFLCNFS” was “soluble”.

On to “CGIVGAIAQRDVAEILLEGLRRLEYRGYDSAGLAVVDAEGHMTRLRRLGKVQMLAQAAEEHPLHGGTGIAHTRWATHGEPSEVNAHPHVSEHIVVVHNGIIENHEPLREELKARGYTFVSETDTEVIAHLVNWELKQGGTLREAVLRAIPQLRGAYGTVIMDSRHPDTLLAARSGSPLVIGLGMGENFIASDQLALLPVTRRFIFLEEGDIAEITRRSVNIFDKTGAEVKRQDIESNLQYDAGDKGIYRHYMQKEIYEQPNAIKNTLTGRISHGQVDLSELGPNADELLSKVEHIQILACGTSYNSGMVSRYWFESLAGIPCDVEIASEFRYRKSAVRRNSLMITLSQSGETADTLAGLRLSKELGYLGSLAICNVPGSSLVRESDLALMTNAGTEIGVASTKAFTTQLTVLLMLVAKLSKLKGLDASIEHDIVHGLQALPSRIEQMLSQDKRIEALAEDFSDKHHALFLGRGDQYPIALEGALKLKEISYIHAEAYAAGELKHGPLALIDADMPVIVVAPNNELLEKLKSNIEEVRARGGQLYVFADQDAGFVSSDNMHIIEMPHVEEVIAPIFYTVPLQLLAYHVALIKGTDVDQPRNLAKSVTVE”, for which the “soluble on expression in E. coli” value is “soluble”.

For the sequence “CTEPLGLKDNTIPNKQITASSYYKTWGLSAFSWFPYYARLDNQGKFNAWTAQTNSASEWLQIDLGSQKRVTGIITQGARDFGHIQYVAAYRVAYGDDGVTWTEYKDPGASESKIFPGNMDNNSHKKNIFETPFQARFVRIQPVAWHNRITLRVELLGC”, the “soluble on expression in E. coli” value was “soluble”. The value for “CTRAVYLGPDRMVVTGRTMDWKEDIMSNIYVFPRGMQRAGHNKEKTVNWTSKYGSVIATGYDIGTCDGMNEKGLVASLLFLPESVYSLPGDTRPAMGISIWTQYVLDNFATVREAVDEMKKETFRIDAPRMPNGGPESTLHMAITDETGNTAVIEYLDGKLSIHEGKEYQVMTNSPRYELQLAVNDYWKEVGGLQMLPGTNRSSDRFVRASFYIHAIPQTADAKIAVPSVLSVMRNVSVPFGINTPEKPHISSTRWRSVSDQKNKVYYFESTLTPNLFWLDLKKIDFSPKAGVKKLSLTKGEIY” was “not soluble”; that for “DAPAVGKDLTQAAENIPPAFHNAPRQGELPALNYVNQPPMVPHSVANYQVTKNVNQCLNCHSPENSRLSGATRISPTHFMDRDGKVGSSSSPRRYFCLQCHVSQANVDPIVPNDFKPMKGYGN” was “soluble”; that for “DAVPEKSLNAALLCLQAMGALDDNGDVTEHGKKVYPLPIDALFADLVTRIPTKAEKEAMIDLAAALSVPAQLYQLQRGEAAEALEREEPLGCD” was “not soluble”.

Consider “DDFLTLDACKIALKEMKKGFDLLCFDAFVHRVKTKQFYRFKQDEFFNQKEFLEFLSKQRHFCWSVWAKCFRKDIILKSFEKIKIDERLSYGEDVLFCYVYFMFCEKIAVFKTCIYHYEFNPNGRYENKNKEILWQNYQDKKKSNELVKKLCLNFKNNDFHKKLFEVLEKEEFDLQRRVDEARN”, for which the “soluble on expression in E. coli” value was “not soluble”. In the case of “DENASAAEQVNKTIIGIDPGSGIMSLTDKAMKDYDLNDWTLISASSAAMTATLKKSYDRKKPIIITGWTPHWMFSRYKLKYLDDPKQSYGSAEEIHTITRKGFSKEQPNAAKLLSQFKWTQDEMGEIMIKVEEGEKPAKVAAEYVNKHKDQIAEWTKGVQKVKGDKINLAYVAWDSEIASTNVIGKVLEDLGYEVTLTQVEAGPMWTAIATGSADASLSAWLPNTHKAYAAKYKGKYDDIGTSMTGVKMGLVVPQYMKNVNSIEDLKK” it was “soluble”. The value for “DGISSLLKPLSKIGLDTKTFALLISMTLRFVPILSDEFSTIVDAQRSRGLSLKTGSIVKRTKTLIPMIIPLISVAFKKALTLADTMEIRGFIDAKSRTSFHQLKFQKID” was “not soluble”; that for “DGQLTNLPGGIDEYLKRREALAAQNQSGVVNLGGNNEAASAPVPEKKLSSQEQREITKQMNALERKMGKLDPKIAKINEEMAAAAQRVDTAELTRLDAELNELTAQREGLEMEWMDLGERLES” was “soluble”.
